US20230355720A1, “PHARMACEUTICAL COMPOSITION FOR PREVENTING OR TREATING BONE DISEASES, COMPRISING TRIPLE AGONIST OR CONJUGATE THEREOF HAVING ACTIVITY WITH RESPECT TO ALL OF GLUCAGON, GLP-1 AND GLP RECEPTORS” (HANMI PHARM. CO., LTD., priority 2020, published 2023)
Bridge positions count the residues as written; N and C are the ends. Square brackets hold non-standard residues; d marks the D form. Ends that are not written are not given here. * marks the point of attachment. Acetyl(2-(4-imidazolyl)) = O=C(Cc1c[nH]cn1)*; Aib = CC(C)(N)C(=O)O

T1: human GIP receptor (human, UniProt P48546 22-466)
T1 sequence (looked up): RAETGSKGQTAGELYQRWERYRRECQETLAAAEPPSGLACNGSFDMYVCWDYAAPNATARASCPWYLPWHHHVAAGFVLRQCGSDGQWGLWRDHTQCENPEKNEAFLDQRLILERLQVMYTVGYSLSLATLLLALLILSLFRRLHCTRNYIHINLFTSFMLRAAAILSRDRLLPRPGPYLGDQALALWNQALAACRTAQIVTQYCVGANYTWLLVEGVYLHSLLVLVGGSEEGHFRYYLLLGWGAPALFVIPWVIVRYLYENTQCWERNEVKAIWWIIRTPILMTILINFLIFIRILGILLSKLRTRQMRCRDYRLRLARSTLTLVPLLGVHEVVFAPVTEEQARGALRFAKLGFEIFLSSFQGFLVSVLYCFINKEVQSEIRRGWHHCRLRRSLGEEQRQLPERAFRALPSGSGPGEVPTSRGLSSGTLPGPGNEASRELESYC

B1: triple agonist of SEQ ID NO: 101 (peptide)
peptide: Y[Aib]QGTFTSDYSKALDEKAAKEFVNWLLDQHPSSGQPPPSC
modifications: bridge 16-20
B2: triple agonist of SEQ ID NO: 100 (peptide)
peptide: Y[Aib]QGTFTSDYSKALDEKAAKEFVQWLLDQHPSSGQPPPSC
modifications: bridge 16-20
B3: triple agonist of SEQ ID NO: 10 (peptide)
peptide: H[Aib]QGTFTSDVSKYLDGQAAQEFVAWLLAGGGPSSGAPPPSC
modifications: not fully specified
B4: triple agonist of SEQ ID NO: 95 (peptide)
peptide: Y[Aib]QGTFTSDYSKYLDEKRAKEFVQWLLCHHPSSGQPPPS
modifications: bridge 16-20
B5: triple agonist of SEQ ID NO: 102 (peptide)
peptide: Y[Aib]QGTFTSDYSKALDEKAAKDFVNWLLDQHPSSGQPPPSC
modifications: bridge 16-20
B6: triple agonist of SEQ ID NO: 96 (peptide)
peptide: Y[Aib]QGTFTSDYSKYLDEKRAKEFVQWLLDHCPSSGQPPPS
modifications: bridge 16-20
B7: triple agonist of SEQ ID NO: 89 (peptide)
peptide: {Acetyl(2-(4-imidazolyl))}-[Aib]QGTFTSDYSKYLDEKRQKEFVQWLLDTKC
modifications: bridge 15-19; numbers in words are those of the source; also: ring between positions 16 and 20, type not given here
B8: triple agonist of SEQ ID NO: 12 (peptide)
peptide: [Acetyl(2-(4-imidazolyl))]GEGTFISDLSKYMDEQAVQLFVEWLMAGGPSSGAPPPSHG
modifications: not fully specified
B9: triple agonist of SEQ ID NO: 92 (peptide)
peptide: [Acetyl(2-(4-imidazolyl))][Aib]QGTFTSDYSIAMDEIHQKDFVNWLLAQKC
modifications: bridge 16-20; not fully specified
B10: triple agonist of SEQ ID NO: 87 (peptide)
peptide: {Acetyl(2-(4-imidazolyl))}-[Aib]QGTFTSDYSIAMDEIHQKDFVNWLLNTC
modifications: bridge 15-19; numbers in words are those of the source; also: ring between positions 16 and 20, type not given here
B11: triple agonist of SEQ ID NO: 98 (peptide)
peptide: Y[Aib]QGTFTSDYSKALDEKAAKEFVNWLLDHHPSSGQPPPSC
modifications: bridge 16-20
B12: triple agonist of SEQ ID NO: 97 (peptide)
peptide: Y[Aib]QGTFTSDYSKYLDEKRAKEFVQWLLDCHPSSGQPPPS
modifications: bridge 16-20
B13: triple agonist of SEQ ID NO: 94 (peptide)
peptide: {Acetyl(2-(4-imidazolyl))}-[Aib]QGTFTSDYSIAMDEIHQKDFVNWLLNTKC
modifications: bridge 15-19; numbers in words are those of the source; also: ring between positions 16 and 20, type not given here
B14: triple agonist of SEQ ID NO: 90 (peptide)
peptide: [Acetyl(2-(4-imidazolyl))][Aib]EGTFTSDYSIAMDEIHQKDFVNWLLAQKC
modifications: bridge 16-20; not fully specified
B15: triple agonist of SEQ ID NO: 91 (peptide)
peptide: {Acetyl(2-(4-imidazolyl))}-[Aib]EGTFTSDYSIAMDEIHQKDFVDWLLAEKC
modifications: bridge 15-19; numbers in words are those of the source; also: ring between positions 16 and 20, type not given here
B16: triple agonist of SEQ ID NO: 93 (peptide)
peptide: {Acetyl(2-(4-imidazolyl))}-[Aib]QGTFTSDYSKYLDEKRQKEFVNWLLAQKC
modifications: bridge 15-19; numbers in words are those of the source; also: ring between positions 16 and 20, type not given here
B17: triple agonist of SEQ ID NO: 88 (peptide)
peptide: {Acetyl(2-(4-imidazolyl))}-[Aib]QGTFTSDYSKYLDEKRQKEFVQWLLNTKC
modifications: bridge 15-19; numbers in words are those of the source; also: ring between positions 16 and 20, type not given here
B18: triple agonist of SEQ ID NO: 11 (peptide)
peptide: [Acetyl(2-(4-imidazolyl))]GEGTFTSDLSKYLDSRRQQLFVQWLKAGGPSSGAPPPSHG
modifications: not fully specified
B19: triple agonist of SEQ ID NO: 99 (peptide)
peptide: Y[Aib]QGTFTSDYSKALDEKAAKDFVNWLLDHHPSSGQPPPSC
modifications: bridge 16-20

These binders were tested against T1, human GIP receptor (assay: cell-based or functional assay).

Binder | In vitro activity (%) compared with native peptide, vs GIP [%]
B1 | 40.1
B2 | 118
B3 | < 0.1
B4 | < 0.1
B5 | 58
B6 | 5.2
B7 | < 0.1
B8 | < 0.1
B9 | 0.4
B10 | < 0.1
B11 | 47.1
B12 | 2.6
B13 | < 0.1
B14 | < 0.1
B15 | 0.3
B16 | 0.7
B17 | < 0.1
B18 | < 0.1
B19 | 57.7

The binders below were run against human GCG receptor (human, UniProt P47871 26-477) (assay: cell-based or functional assay).
Sequence of human GCG receptor (P47871 26-477): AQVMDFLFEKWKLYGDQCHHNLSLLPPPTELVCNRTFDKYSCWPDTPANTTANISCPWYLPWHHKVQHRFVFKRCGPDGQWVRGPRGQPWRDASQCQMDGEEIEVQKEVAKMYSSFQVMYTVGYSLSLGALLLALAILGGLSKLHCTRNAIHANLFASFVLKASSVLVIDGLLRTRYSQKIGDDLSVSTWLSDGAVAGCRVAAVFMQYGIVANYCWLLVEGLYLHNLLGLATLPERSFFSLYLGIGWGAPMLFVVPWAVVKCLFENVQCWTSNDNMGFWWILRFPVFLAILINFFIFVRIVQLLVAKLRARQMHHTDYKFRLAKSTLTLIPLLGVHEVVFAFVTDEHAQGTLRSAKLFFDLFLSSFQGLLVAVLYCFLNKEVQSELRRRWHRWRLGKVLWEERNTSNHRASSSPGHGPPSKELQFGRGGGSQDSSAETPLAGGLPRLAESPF

Binder | In vitro activity (%) compared with native peptide, vs Glucagon [%]
B1 | 13.9
B2 | 12.7
B3 | < 0.1
B4 | 0.4
B5 | 29.5
B6 | 195
B7 | 0.7
B8 | < 0.1
B9 | < 0.1
B10 | < 0.1
B11 | 8.2
B12 | 62.8
B13 | < 0.1
B14 | < 0.1
B15 | 16.8
B16 | 0.3
B17 | 0.3
B18 | < 0.1
B19 | 14.9

Each binder was assayed against human GLP-1 receptor (human, UniProt P43220 24-463) (assay: cell-based or functional assay).

Binder | In vitro activity (%) compared with native peptide, vs GLP-1 [%]
B1 | 23.2
B2 | 42.2
B3 | 46
B4 | 2.1
B5 | 23.3
B6 | 34.4
B7 | 7.1
B8 | 0.4
B9 | 0.8
B10 | 0.9
B11 | 28.1
B12 | 10.5
B13 | 0.5
B14 | 7.4
B15 | 31.9
B16 | 5.7
B17 | 9.6
B18 | 1.4
B19 | 20.9
